In experiment [1] the target is T1, human CTLA4 (human).
T1 construct: also called hCTLA4; hCTLA4-His-BAP
The experiment can be described thus: SPR Biacore T200, 37C, antibody captured, ATP 10 uM.
Description: (§1) Biacore T200 was used to measure the binding of the generated antibodies to human CTLA4. 20 mM ACES (pH 7.4), 150 mM NaCl, 2 mM MgCl₂, 0.05% Tween 20 with ATP added to the desired concentration was used as the running buffer, and the assay was performed at 37° C. First, Protein G (CALBIOCHEM) was immobilized onto a Series S Sensor Chip CM3 (GE Healthcare), and the antibodies were captured by interacting an antibody solution prepared in an ATP-free running buffer with the chip. Next, by interacting with a human CTLA4 solution prepared in a running buffer containing ATP to the desired concentration, or a human CTLA4 solution prepared in a running buffer containing no ATP, the binding ability of the antibody to human CTLA4 in the presence or absence of ATP was evaluated. Chips were regenerated with 25 mM NaOH and 10 mM Glycine-HCl (pH 1.5), and assay was performed by repeatedly capturing antibodies. The dissociation constant of each antibody for CTLA4 was calculated using Biacore T200 Evaluation Software 2.0. Specifically, the binding rate constant ka (L/mol/s) and the dissociation rate constant kd (1/s) were calculated by global fitting of the sensorgrams obtained by the measurement, using a 1:1 Langmuir binding model. The dissociation constant KD (mol/L) was calculated from those values. Alternatively, the dissociation constant KD (mol/L) was calculated by the steady state model. In addition, the binding amount of CTLA4 per unit amount of antibody was calculated by correcting the amount of CTLA4 bound as calculated from the sensorgram obtained by the assay with the amount of antibody captured onto the chip surface.
(§2) Next, the binding ability of some variants to mouse CTLA4 and cynomolgus monkey CTLA4 was evaluated.

In experiment [2] the target is T2, cynomolgus monkey CTLA4 (CyCTLA4-His-BAP) (cynomolgus monkey). The experiment is described as above.
Description: as §1, §2
The target of experiment [3] is T1, human CTLA4. The experiment can be described thus: SPR Biacore T200, 37C, antibody captured, no ATP, steady state model.
Description: Biacore T200 was used to measure the binding of the generated antibodies to human CTLA4. 20 mM ACES (pH 7.4), 150 mM NaCl, 2 mM MgCl₂, 0.05% Tween 20 with ATP added to the desired concentration was used as the running buffer, and the assay was performed at 37° C. First, Protein G (CALBIOCHEM) was immobilized onto a Series S Sensor Chip CM3 (GE Healthcare), and the antibodies were captured by interacting an antibody solution prepared in an ATP-free running buffer with the chip. Next, by interacting with a human CTLA4 solution prepared in a running buffer containing ATP to the desired concentration, or a human CTLA4 solution prepared in a running buffer containing no ATP, the binding ability of the antibody to human CTLA4 in the presence or absence of ATP was evaluated. Chips were regenerated with 25 mM NaOH and 10 mM Glycine-HCl (pH 1.5), and assay was performed by repeatedly capturing antibodies. The dissociation constant of each antibody for CTLA4 was calculated using Biacore T200 Evaluation Software 2.0. Specifically, the binding rate constant ka (L/mol/s) and the dissociation rate constant kd (1/s) were calculated by global fitting of the sensorgrams obtained by the measurement, using a 1:1 Langmuir binding model. The dissociation constant KD (mol/L) was calculated from those values. Alternatively, the dissociation constant KD (mol/L) was calculated by the steady state model.
The target of experiment [4] is T1, human CTLA4. The experiment can be described thus: SPR Biacore T200, 37C, antibody captured, ADP 10 uM.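 Note: antibodies held on a Protein G CM3 chip, human CTLA4 as analyte in ACES pH 7.4 buffer, rates from a global 1:1 Langmuir fit, Kd from rates or steady state.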
Description: as §1
(§3) The binding ability of the generated variants to human CTLA4 in the presence of ADP or AMP was evaluated by Biacore T200 and compared with the binding ability in the presence of ATP.
In experiment [5] the target is T1, human CTLA4. The experiment can be described thus: SPR Biacore T200, 37C, antibody captured, AMP 10 uM.
Description: as §1, §3
The target of experiment [6] is T1, human CTLA4. The experiment can be described thus: SPR Biacore T200, 37C, antibody captured, ATP 1 uM.
Description: as §1
Experiment [7] deals with T1, human CTLA4. The experiment is described as follows: SPR Biacore T200, 37C, antibody captured, ATP 10 uM. The source holds these as a separate data set.
Description: as §1
The target in experiment [8] is T1, human CTLA4. The experiment is described as follows: SPR Biacore T200, 37C, antibody captured, ATP 1 uM. This is another data set of the same source.
Description: as §1, §2
Experiment [9] concerns the target T2, cynomolgus monkey CTLA4 …. The experiment is described as follows: SPR Biacore T200, 37C, antibody captured, ATP 1 uM.
Description: as §1, §2
Experiment [10] addresses T1, human CTLA4. The experiment can be described thus: SPR Biacore T200, 37C, antibody captured, ATP 10 uM. This is another data set of the same source.
Description: as §1, §3
In experiment [11] the target is T1, human CTLA4. The experiment is described as follows: SPR Biacore T200, 37C, antibody captured, ATP 100 uM.
Description: as §1, §2
The target in experiment [12] is T2, cynomolgus monkey CTLA4 …. The experiment is described as above.
Description: as §1, §2
For experiment [13], the target named is T3, human C1q protein (Calbiochem) (human, UniProt P02745 23-245; P02746 28-253; P02747 29-245).
T3 construct: bought; also called hC1q
T3 sequence (P02745 23-245 limits assumed, chain 1 of 3): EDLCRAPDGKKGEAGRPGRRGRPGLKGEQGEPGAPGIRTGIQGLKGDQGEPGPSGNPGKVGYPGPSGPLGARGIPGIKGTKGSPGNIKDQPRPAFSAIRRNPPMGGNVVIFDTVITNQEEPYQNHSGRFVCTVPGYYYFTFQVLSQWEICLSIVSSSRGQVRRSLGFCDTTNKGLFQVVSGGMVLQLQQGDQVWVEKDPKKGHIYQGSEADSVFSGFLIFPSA
T3 sequence (P02746 28-253 limits assumed, chain 2 of 3): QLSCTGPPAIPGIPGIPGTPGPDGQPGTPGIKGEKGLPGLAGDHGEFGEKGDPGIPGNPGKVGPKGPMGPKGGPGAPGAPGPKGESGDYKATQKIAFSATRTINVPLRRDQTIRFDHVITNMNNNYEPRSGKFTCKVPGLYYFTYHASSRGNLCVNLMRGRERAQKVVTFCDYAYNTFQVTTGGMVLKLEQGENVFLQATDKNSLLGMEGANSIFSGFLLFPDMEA
T3 sequence (P02747 29-245 limits assumed, chain 3 of 3): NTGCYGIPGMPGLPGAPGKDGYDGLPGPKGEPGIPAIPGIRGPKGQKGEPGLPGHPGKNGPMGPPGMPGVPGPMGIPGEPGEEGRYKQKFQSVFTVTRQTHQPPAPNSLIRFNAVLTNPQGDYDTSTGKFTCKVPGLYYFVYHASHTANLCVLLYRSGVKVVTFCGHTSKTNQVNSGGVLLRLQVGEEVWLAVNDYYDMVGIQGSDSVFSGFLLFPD
The experiment can be described thus: ELISA: antibody coated on the plate at the varied concentration, hC1q 3 µg/mL added, detected with HRP-conjugated anti-hC1q antibody, O.D (450-690nm).
Description: The antigen used was a human C1q protein (hC1q).
First, a 96-well maxisorp plate (Thermo fisher) was coated at 4° C. overnight with 50 μL of solutions containing each antibody prepared at 30, 10, 3, 1, 0.3, 0.1, and 0.03 μg/mL in PBS. Each well of the plate was washed with Wash buffer to remove the antibody not bound to the plate, and then the wells were blocked with 200 μL of Blocking/dilution Buffer at room temperature for 2 hours or longer. After the Blocking/dilution Buffer was removed from each well, hC1q (Calbiochem) prepared such that the final concentration was 3 μg/mL in Blocking/dilution Buffer was added at 50 μL per well. The plate was then allowed to stand at room temperature for 1 hour to allow hC1q to bind to the antibody within each well. After washing with Wash Buffer, 50 μL of an HRP-conjugated anti-hC1q antibody (AbDSerotec) diluted with Blocking/dilution Buffer was added to each well, and the plate was incubated while standing for 1 hour. After washing with Wash Buffer, TMB single solution (Invitrogen) was added. The color development reaction of the solution in each well was stopped by addition of Stop Buffer, and then the developed color was measured by absorbance at 450 nm and 690 nm.

T1 sequence (chain, as listed by the source limits assumed): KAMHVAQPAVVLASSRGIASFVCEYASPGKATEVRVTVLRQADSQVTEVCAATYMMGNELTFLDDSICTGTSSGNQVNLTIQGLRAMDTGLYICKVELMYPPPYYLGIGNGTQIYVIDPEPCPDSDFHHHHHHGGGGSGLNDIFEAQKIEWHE
T2 sequence (chain, as listed by the source limits assumed): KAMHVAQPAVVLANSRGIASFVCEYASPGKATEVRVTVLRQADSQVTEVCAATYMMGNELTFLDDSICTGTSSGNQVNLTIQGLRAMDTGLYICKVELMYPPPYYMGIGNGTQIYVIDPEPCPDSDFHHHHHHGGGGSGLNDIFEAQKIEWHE

B1: 04H1656-G1m/04L1612-lam1 (antibody, human IgG1, lambda)
heavy: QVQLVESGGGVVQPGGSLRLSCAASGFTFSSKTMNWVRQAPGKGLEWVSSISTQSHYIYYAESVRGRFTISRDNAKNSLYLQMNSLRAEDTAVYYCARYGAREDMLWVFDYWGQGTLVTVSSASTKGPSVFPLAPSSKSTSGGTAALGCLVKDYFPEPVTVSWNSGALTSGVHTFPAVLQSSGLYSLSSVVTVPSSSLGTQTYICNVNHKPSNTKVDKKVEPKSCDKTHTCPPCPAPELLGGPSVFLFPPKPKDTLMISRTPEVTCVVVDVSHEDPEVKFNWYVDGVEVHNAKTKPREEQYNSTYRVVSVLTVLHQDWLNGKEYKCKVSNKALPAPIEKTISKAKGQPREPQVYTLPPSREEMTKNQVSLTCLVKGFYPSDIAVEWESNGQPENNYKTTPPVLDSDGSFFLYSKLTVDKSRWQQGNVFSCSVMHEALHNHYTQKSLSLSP
light: QSALTQPPSASGSPGQSVTISCEGPSTGVGDYTYVHWYQQHPGKAPKLMIYFTSKKPSGVPDRFSGSKSGNTASLTVSGLQAEDEADYYCQTYAAPLGPMFGGGTKLTVLGQPKAAPSVTLFPPSSEELQANKATLVCLISDFYPGAVTVAWKADSSPVKAGVETTTPSKQSNNKYAASSYLSLTPEQWKSHRSYSCQVTHEGSTVEKTVAPTECS
Regarding B1, the Kd with human CTLA4 [1] is 25 nM; in [2] it was 41 nM; with human CTLA4 [3], 7600 nM; with human CTLA4 [4], 42 nM; in the experiment with human CTLA4 [5], 130 nM; with human CTLA4 [6], 160 nM. Also, the Kd with human CTLA4 [7] was 32 nM; with human CTLA4 [8], 95 nM; in experiment [9], 160 nM; in the experiment with human CTLA4 [10], 26 nM; in the experiment with human CTLA4 [11], 7.8 nM; in experiment [12] it was 16 nM. Also, the koff with human CTLA4 [4] was determined as 0.0064 s⁻¹; with human CTLA4 [5], 0.02 s⁻¹; with human CTLA4 [10], 0.0029 s⁻¹. For the same molecule, the kon in the experiment with human CTLA4 [4] is 150000 M⁻¹ s⁻¹; in the experiment with human CTLA4 [5] it was 150000 M⁻¹ s⁻¹; with human CTLA4 [10], 110000 M⁻¹ s⁻¹.

B2: EGL-G4d (antibody, human IgG4 S228P, kappa)
heavy: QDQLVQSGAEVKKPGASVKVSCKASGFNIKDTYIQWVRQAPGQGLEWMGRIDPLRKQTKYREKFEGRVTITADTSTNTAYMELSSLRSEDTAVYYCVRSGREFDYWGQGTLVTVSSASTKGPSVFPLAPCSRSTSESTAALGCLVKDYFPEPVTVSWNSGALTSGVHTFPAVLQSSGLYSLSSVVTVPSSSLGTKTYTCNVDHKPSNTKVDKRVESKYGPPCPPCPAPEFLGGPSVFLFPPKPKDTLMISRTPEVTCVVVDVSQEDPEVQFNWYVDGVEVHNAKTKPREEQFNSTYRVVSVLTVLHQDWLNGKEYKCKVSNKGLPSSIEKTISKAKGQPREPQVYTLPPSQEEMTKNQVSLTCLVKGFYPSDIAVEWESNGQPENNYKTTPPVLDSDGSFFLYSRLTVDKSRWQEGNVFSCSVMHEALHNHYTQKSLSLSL
light: DIQMTQSPSSLSASVGDRVTITCRASQDIHKYIAWYQQKPGQAPRLLIQYTSTLQPGVPSRFSGSGSGTDYTFTISSLQPEDIATYYCLQYEQLRTFGGGTKVEIKRTVAAPSVFIFPPSDEQLKSGTASVVCLLNNFYPREAKVQWKVDNALQSGNSQESVTEQDSKDSTYSLSSTLTLSKADYEKHKVYACEVTHQGLSSPVTKSFNRGEC
On to B2, for which the binding result in experiment [13] is listed as “no binding (tested: 30 µg/mL)”.

The values above are taken from US20260022175A1 (Chugai, published 2026).
